This note sets out measurements from paper PMC9542132.

The target of experiment [1] is CdvB1 from Metallosphaera sedula, MBP tag cleaved off with 3C protease (Metallosphaera sedula). Nature of the experiment: co-sedimentation; 1 uM MBP-CdvB1 with 0.1 uM 3C protease, 50 mM HEPES pH 7.4, 50 mM NaCl, 5 mM MgCl2, Ficoll 41.25 mg/mL, overnight at 4 °C; 0.6 uM CdvC added, nucleotide or buffer, 2 min at 50 °C; 140 000 g 30 min at 4 °C; pellet and supernatant on SDS/PAGE.

Experiment [2] has the same target.
For experiment [3] the target is unchanged. This is another data set of the same source.

Consider “CdvB1 from Metallosphaera sedula, MBP tag cleaved off with 3C protease (natural protein)”, for which the filament-to-monomer ratio (with CdvC and ADP or ATPγS, no hydrolysable nucleotide) in experiment [1] turned out to be 2.

B1: CdvC from Metallosphaera sedula (enzyme)
chain: MSAQVMLEEMARKYAIAAVRADKEGRREDAINNYKKAIEVLTQIVTLYPDMVARNAYEQMINEYKKRLETLNQMVPEGGEETEKAEEDIVMKEKPKVTLNEIVGLEDVKEALKEAVVYPSKRPDLFPLGWPRGILLYGPPGCGKTMIAAAVANELDSEFIHVDAASIMSKWLGEAEKNVAKIFKTARELSKKENKPAIIFIDELDALLASYTSEVGGEARVRNQFLKEMDGLADKNEISKVYVIGATNKPWRLDEPFLRRFQKRIYITLPDKAHRLELLKHYSSKVKLDPNVNLEELAELTDGYTASDIRDIVQSAHMRVVKEMFEKNLQEPRAINMDDFREVLKVRKPSVNQDMLKAYAAWHEKFKAL
Turning to B1, the filament-to-monomer (pellet-to-supernatant) ratio of CdvB1 in the sedimentation assay after CdvC with ATP, 2 min at 50 °C in experiment [2] was 0.1. The molecule further had an ATP consumed by CdvC (0.1 uM) in 25 min at 50 °C with CdvB1 filaments (1 uM) against CdvC alone in experiment [3] of 8 fold.
